B1: Yak enterovirus (nucleic acid, listed as Enterovirus sp.)
DNA: CTCCGGCACAGCCGCACCAGTGCACTGGTACGCTAGTACCTTTTCACGGGGTAGTCGGTATCCCCCCCCGTAACTTAGAAGCATGTAACAAACCGACCAATAGGTGCGCGGCAGCCAGCTGCGTTGCGGTCAAGCACTTCTGTCTCCCCGGTCCGCAAGGATCGTTACCCGCCCACTCCACTACGAGGAGCCTAGTAACTGGCCAAGTGATTGCGGAGTTGCGTTCAGCCACAACCCCAGTGGTAGCTCTGGAAGATGGGGCTCGCACATCCCCCGTGGTAACACGGTTGCTTGCCCGCGTGTGCTTCCGGGTTCAGTCTCCGACTGTTCACTTCAACATCACGCAACCAGCCAAGAGCCGATTGTGCTGGAGTGGTCTTCCTCCGGGGCCGTGAATGCTGCTAATCCTAACCTCCGAGCGTGTGCGCACAATCCAGTGTTGCTACGTCGTAACGCGTAAGTTGGAGGCGGAACAGACTACTTTCGGCACCCCGTGTTTCCTTTATTTTATTCTTATTTTATGGTGACAATTGCAGAGATTTGTGATATTGCGACTTTACCGTTAAACATAGCACTGCATTACCTGGTTGCATTCCACAAAACTTCAGAGATTCCTAGTTCCTACATTGACCTACTTGTTTATTTGAATCTTAAATACAAACTTGAGCAAGTGAA
B2: Caprine Kobuvirus d10 (nucleic acid, listed as Kobuvirus sp.)
DNA: GGGGCCTCGGCCCCCTCACCCTCTTTTCCGGTGGCCACGCCCGGGCCACCGATACTTCCCTTCACTCCTTCGGGACTGTTGGGGAGGAACACAACAGGGCTCCCCTGTTTTCCCATTCCTTCCCCCTTTTCCCAACCCCAACCGCCGTATCTGGTGGCGGCAAGACACACGGGTCTTTCCCTCTAAAGCACAATTGTGTGTGTGTCCCAGGTCCTCCTGCGTACGGTGCGGGAGTGCTCCCACCCAACTGTTGTAAGCCTGTCCAACGCGTCGTCCTGGCAAGACTATGACGTCGCATGTTCCGCTGCGGATGCCGACCGGGTAACCGGTTCCCCAGTGTGTGTAGTGCGATCTTCCAGGTCCTCCTGGTTGGCGTTGTCCAGAAACTGCTTCAGGTAAGTGGGGTGTGCCCAATCCCTACAAAGGTTGATTCTTTCACCACCTTAGGAATGCTCCGGAGGTACCCCAGCAACAGCTGGGATCTGACCGGAGGCTAATTGTCTACGGGTGGTGTTTCCTTTTTCTTTTCACACAACTCTACTGCTGACAACTCACTGACTATCCACTTGCTCTCTTGTGCCTTTCTGCTCTGGTTCAAGTTCCTTGATTGTTTTTGACTGCTTTTCACTGCTTTTCTTCTCACAATCCTTGCTCAGTTCAAAGTC
B3: Caprine Kobuvirus d50 (nucleic acid, listed as Kobuvirus sp.)
DNA: CCGGGCCACCGATACTTCCCTTCACTCCTTCGGGACTGTTGGGGAGGAACACAACAGGGCTCCCCTGTTTTCCCATTCCTTCCCCCTTTTCCCAACCCCAACCGCCGTATCTGGTGGCGGCAAGACACACGGGTCTTTCCCTCTAAAGCACAATTGTGTGTGTGTCCCAGGTCCTCCTGCGTACGGTGCGGGAGTGCTCCCACCCAACTGTTGTAAGCCTGTCCAACGCGTCGTCCTGGCAAGACTATGACGTCGCATGTTCCGCTGCGGATGCCGACCGGGTAACCGGTTCCCCAGTGTGTGTAGTGCGATCTTCCAGGTCCTCCTGGTTGGCGTTGTCCAGAAACTGCTTCAGGTAAGTGGGGTGTGCCCAATCCCTACAAAGGTTGATTCTTTCACCACCTTAGGAATGCTCCGGAGGTACCCCAGCAACAGCTGGGATCTGACCGGAGGCTAATTGTCTACGGGTGGTGTTTCCTTTTTCTTTTCACACAACTCTACTGCTGACAACTCACTGACTATCCACTTGCTCTCTTGTGCCTTTCTGCTCTGGTTCAAGTTCCTTGATTGTTTTTGACTGCTTTTCACTGCTTTTCTTCTCACAATCCTTGCTCAGTTCAAAGTC
B4: Caprine Kobuvirus d40 (nucleic acid, listed as Kobuvirus sp.)
DNA: GTGGCCACGCCCGGGCCACCGATACTTCCCTTCACTCCTTCGGGACTGTTGGGGAGGAACACAACAGGGCTCCCCTGTTTTCCCATTCCTTCCCCCTTTTCCCAACCCCAACCGCCGTATCTGGTGGCGGCAAGACACACGGGTCTTTCCCTCTAAAGCACAATTGTGTGTGTGTCCCAGGTCCTCCTGCGTACGGTGCGGGAGTGCTCCCACCCAACTGTTGTAAGCCTGTCCAACGCGTCGTCCTGGCAAGACTATGACGTCGCATGTTCCGCTGCGGATGCCGACCGGGTAACCGGTTCCCCAGTGTGTGTAGTGCGATCTTCCAGGTCCTCCTGGTTGGCGTTGTCCAGAAACTGCTTCAGGTAAGTGGGGTGTGCCCAATCCCTACAAAGGTTGATTCTTTCACCACCTTAGGAATGCTCCGGAGGTACCCCAGCAACAGCTGGGATCTGACCGGAGGCTAATTGTCTACGGGTGGTGTTTCCTTTTTCTTTTCACACAACTCTACTGCTGACAACTCACTGACTATCCACTTGCTCTCTTGTGCCTTTCTGCTCTGGTTCAAGTTCCTTGATTGTTTTTGACTGCTTTTCACTGCTTTTCTTCTCACAATCCTTGCTCAGTTCAAAGTC
B5: Caprine Kobuvirus d20 (nucleic acid, listed as Kobuvirus sp.)
DNA: CCCCCTCACCCTCTTTTCCGGTGGCCACGCCCGGGCCACCGATACTTCCCTTCACTCCTTCGGGACTGTTGGGGAGGAACACAACAGGGCTCCCCTGTTTTCCCATTCCTTCCCCCTTTTCCCAACCCCAACCGCCGTATCTGGTGGCGGCAAGACACACGGGTCTTTCCCTCTAAAGCACAATTGTGTGTGTGTCCCAGGTCCTCCTGCGTACGGTGCGGGAGTGCTCCCACCCAACTGTTGTAAGCCTGTCCAACGCGTCGTCCTGGCAAGACTATGACGTCGCATGTTCCGCTGCGGATGCCGACCGGGTAACCGGTTCCCCAGTGTGTGTAGTGCGATCTTCCAGGTCCTCCTGGTTGGCGTTGTCCAGAAACTGCTTCAGGTAAGTGGGGTGTGCCCAATCCCTACAAAGGTTGATTCTTTCACCACCTTAGGAATGCTCCGGAGGTACCCCAGCAACAGCTGGGATCTGACCGGAGGCTAATTGTCTACGGGTGGTGTTTCCTTTTTCTTTTCACACAACTCTACTGCTGACAACTCACTGACTATCCACTTGCTCTCTTGTGCCTTTCTGCTCTGGTTCAAGTTCCTTGATTGTTTTTGACTGCTTTTCACTGCTTTTCTTCTCACAATCCTTGCTCAGTTCAAAGTC
B6: Aichivirus A FSS693 (nucleic acid)
DNA: CACCCATACACCCCCACCCCCTTTTCTGTAACTCAAGTATGTGTGCTCGTAATCTTGACTCCCACGGAATGGATCGATCCGCTGGAGAACAAACTGCTAGATCCACATCCTCCCTCCCCTTGGGAGGACCTCGGTCCTCCCACATCCTCCCTCCAGCCTGACGTATCACAGGCTGTGTGAAGCCCCCGCGAAAGCTGCTCACGTGGCAATTGTGGGTCCCCCCTTCATCAAGACACCAGGTCTTTCCTCCTTAAGGCTAGCCCCGATGTGTGAATTCACATTGGGCAACTAGTGGTGTCACTGTGCGCTCCCAATCTCGGCCGCGGAGTGCTGTTCCCCAAGCCAAACCCCTGGCCCTTCACTATGTGCCTGGCAAGCATATCTGAGAAGGTGTTCCGCTGTGGCTGCCAGCCTGGTAACAGGTGCCCCAGTGTGCGTAACCTTCTTCCGTCTCCGGACGGTAGTGATTGGTTAAGATTTGGTGTAAGGTTCATGTGCCAACGCCCTGTGCGGGATGAAACCTCTACTGCCCTAGGAATGCCAGGCAGGTACCCCACCTTCGGGTGGGATCTGAGCCTGGGCTAATTGTCTACGGGTAGTTTCATTTCCAATTCTTTTATGCTGGAGTC
modifications: Aichivirus A
B7: Caprine Kobuvirus d30 (nucleic acid, listed as Kobuvirus sp.)
DNA: CTCTTTTCCGGTGGCCACGCCCGGGCCACCGATACTTCCCTTCACTCCTTCGGGACTGTTGGGGAGGAACACAACAGGGCTCCCCTGTTTTCCCATTCCTTCCCCCTTTTCCCAACCCCAACCGCCGTATCTGGTGGCGGCAAGACACACGGGTCTTTCCCTCTAAAGCACAATTGTGTGTGTGTCCCAGGTCCTCCTGCGTACGGTGCGGGAGTGCTCCCACCCAACTGTTGTAAGCCTGTCCAACGCGTCGTCCTGGCAAGACTATGACGTCGCATGTTCCGCTGCGGATGCCGACCGGGTAACCGGTTCCCCAGTGTGTGTAGTGCGATCTTCCAGGTCCTCCTGGTTGGCGTTGTCCAGAAACTGCTTCAGGTAAGTGGGGTGTGCCCAATCCCTACAAAGGTTGATTCTTTCACCACCTTAGGAATGCTCCGGAGGTACCCCAGCAACAGCTGGGATCTGACCGGAGGCTAATTGTCTACGGGTGGTGTTTCCTTTTTCTTTTCACACAACTCTACTGCTGACAACTCACTGACTATCCACTTGCTCTCTTGTGCCTTTCTGCTCTGGTTCAAGTTCCTTGATTGTTTTTGACTGCTTTTCACTGCTTTTCTTCTCACAATCCTTGCTCAGTTCAAAGTC
B8: Avian orthoreovirus segment S1 (nucleic acid, listed as Avian orthoreovirus)
DNA: GCTTTTTCAATCCCTTGTGTCGATGTTCCCGTATGTCATCTGGTTCATGTAACGGTGCAACTTCTATTTTTGGTAACGTTCACTGTCAGGCAGCGCAAAACTCGGCGGGTGGTGATCTTCAAGCGACTTCCTCTCTTGTTGCTTATTGGCCCTACTTGGCTGCGGGCGGTGGTCTGCTCGTTGTTATTATTATAATTGTTGGCGCTGTTTGTTGTTGCAAGGCTAAGGTTAAAGCGGACGCAGCCCGAAACGTTTTCTACCGAGAGCTGTTCGCACTTAATTCGGGTAAAAGTGATGCAGGACCTCCGATTTACCAGGTTTAGTGTACGACGATTTGAGTTTTCACCTTTCGTCTTAGAGGAGTGCACTACTCCATCTTTCACGACTATAACTAATACCGATCCGGCTCTCTACTTTAACATTGAGTTTCCGTCAAGTCATCGTCTCTCCCCCTTCATTCCAGAACTGTTGTCTCAGCCTTGTACCGTTCACGTTTCATTGATTCGGAGATTCGCTCTCTGTGCAACCTTATCTAGTATTTGTGAATACGACTGTGCGCTACTGCCATCCATCAACGCTATTACGACGATCCCTACACCAGGTGCGTCATCATCTCTGATTGTTCATTGGG
B9: Wobbly possum disease virus (nucleic acid)
DNA: CGGCTGTGAGTGCTTAGCATATGCTAGAGTACTACAGCCGGGTGTTGGAGTCATATGCACTGGTTGCCTGTATAATAGTCGGGATCTGTCTGACCTACATTATCTTTGGGAGTTGCTTATCACGACAATTCTCGAAGTGTCTGTCGACAGCTTACCCCCGATTCGACAAGGCCCCTTGTCCACCGCAGACCTATCGATTTTCAACGAGAACACTATCAGAGGTTTAAATTTAAAACTCACCAACA

Test system: HEK293 cells
Format: cell-based, human
Settings: luminescence from secreted Gluc in supernatant 24 hours after transfection of HEK293 cells; circular RNA encoding Gluc with the named IRES (UTR truncated to 675 nt)

Compared with B1, B2 is higher in Expression: 6.19E+06 for the first, 2.20E+08 for the second.

Going from B3 to B4, the Expression rises from 9.65E+07 to 2.15E+08.

Going from B5 to B6, the Expression falls from 2.00E+08 to 6.25E+07.

Going from B7 to B8, the Expression falls from 1.87E+08 to 4.37E+05.

In the case of B9, the Expression is reported as 2.60E+05.
